According to paper PMC8968458:

Target: p65 (UniProt Q04206)
Experiment: pull-down of SFB-tagged RB-N from cells
Settings: reference: SFB-RB-N wild type; sites S249,T252

Substance: RB N-terminal portion (RB-N) (from UniProt P06400) S249A/T252A
- binding against the reference: weaker
